The target of assay [1] is T1, Aurora A kinase domain (residues 126-390) with hexa-His tag (human, UniProt O14965 126-390).
T1 construct: Aurora A, human, kinase domain only, residues 126-390, Uniprot O14965; construct for biophysical assays; No removal of the His tag is described; The crystallography constructs differ (Thr287Ala or Cys290Ala; or residues 126-391 without His tag); also called Aurora A protein; pBAT4-AurAS.003 construct; source: E. coli BL21(DE3) with pUBS520, co-expressed with lambda phosphatase, purified (HisTrap, …)
T1 sequence (looked up): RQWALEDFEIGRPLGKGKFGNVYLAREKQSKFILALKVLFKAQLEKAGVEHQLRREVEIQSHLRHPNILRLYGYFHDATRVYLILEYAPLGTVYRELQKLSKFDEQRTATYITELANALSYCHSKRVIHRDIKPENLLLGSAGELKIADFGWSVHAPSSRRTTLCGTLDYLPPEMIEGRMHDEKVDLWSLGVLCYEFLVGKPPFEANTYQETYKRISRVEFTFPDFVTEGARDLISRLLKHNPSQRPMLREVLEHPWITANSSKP
Description: ligand-based NMR competition; ligand-based NMR of fragment hits with Aurora A; displacement of the fragments by the TPX2 peptide fragment 7-22. Conditions: both partners purified.

The target of assay [2] is T1, Aurora A kinase domain (residues …). Description: fluorescence polarisation; direct titration of up to 200 nM Aurora A to 11 nM labelled TPX2 peptide; 100 mM HEPES pH 7.4, 100 mM magnesium acetate, 50 mM NaCl, 0.02% P20, 1 mM DTT, 1 mM ATP, 10% (v/v) DMSO. Conditions: both partners purified. On the technique in general: In fluorescence polarisation assays a small probe gives low polarisation when free and higher when bound to something large.

Where no end group is shown, it is not given here.

B1: TPX2 peptide fragment (amino acids 7-22) (peptide, UniProt Q9ULW0 7-22, looked up)
peptide: SYSYDAPSDFINFSSL
notes: TPX2, amino acids 7-22; Uniprot Q9ULW0 is printed for the longer TPX2 peptide of the methods
As for B1, the binding result in assay [1] was “binds”.

B2: TPX2 peptide (residues 7-43) with C-terminal GGGCSS tail, labelled with Alexa Fluor 488 (peptide)
peptide: SYSYDAPSDFINFSSLDDEGDTQNIDSWFEEKANLENGGGC(Alexa Fluor 488 C5 maleimide)SS
notes: TPX2 (Targeting protein for Xenopus kinesin-like protein 2), residues 7-43, Uniprot Q9ULW0; C-terminal tail that carries the cysteine for labelling; also called labelled TPX2 peptide; labelled TPX2; source: E. coli, purified (Ni Sepharose, labelled, cleaved with HRV 3C protease, second Ni Sepharose, reversed phase C18); not shown: His-tag, N-terminal, cleaved; GB1, N-terminal, cleaved
The term Kd denotes the constant that tells how readily two partners part at equilibrium. Read a low Kd as tighter binding. For B2, the Kd in assay [2] came to 1.2 nM.

The values above are taken from doi:10.1101/2023.03.22.533679, “Selective inhibitors of the Aurora A-TPX2 protein-protein interaction exhibit in vivo efficacy as targeted anti-mitotic agents” (bioRxiv, 2023).
